Values quoted from earlier work as cited in publication PMC12198371 (Nature Communications, 2025).

Target: α-chymotrypsin
Conditions: natural inhibitor, Fig. 9d

- Ki: 6 nM
B1: BBI G.m.: Bowman–Birk inhibitor (BBI) from soybean Glycine max (71 amino acids) (protein, UniProt P01055 40-110, looked up)
Bowman-Birk type proteinase …: DDESSKPCCDQCACTKSNPPQCRCSDMRLNSCHSACKSCICALSYPAQCFCVDITDFCYEPCKPSEDDKEN
